From publication doi:10.1101/2025.04.22.649955
Values belong to the substance of their own block, whether it stands above or below them.

Key:
[1] = molecular target: SynGAP[PSD95] condensates (mCherry-SynGAP with PSD95-mGFP) (human | rat) (UniProt P31016)
Sequence of UniProt P31016 (P31016 whole entry, looked up): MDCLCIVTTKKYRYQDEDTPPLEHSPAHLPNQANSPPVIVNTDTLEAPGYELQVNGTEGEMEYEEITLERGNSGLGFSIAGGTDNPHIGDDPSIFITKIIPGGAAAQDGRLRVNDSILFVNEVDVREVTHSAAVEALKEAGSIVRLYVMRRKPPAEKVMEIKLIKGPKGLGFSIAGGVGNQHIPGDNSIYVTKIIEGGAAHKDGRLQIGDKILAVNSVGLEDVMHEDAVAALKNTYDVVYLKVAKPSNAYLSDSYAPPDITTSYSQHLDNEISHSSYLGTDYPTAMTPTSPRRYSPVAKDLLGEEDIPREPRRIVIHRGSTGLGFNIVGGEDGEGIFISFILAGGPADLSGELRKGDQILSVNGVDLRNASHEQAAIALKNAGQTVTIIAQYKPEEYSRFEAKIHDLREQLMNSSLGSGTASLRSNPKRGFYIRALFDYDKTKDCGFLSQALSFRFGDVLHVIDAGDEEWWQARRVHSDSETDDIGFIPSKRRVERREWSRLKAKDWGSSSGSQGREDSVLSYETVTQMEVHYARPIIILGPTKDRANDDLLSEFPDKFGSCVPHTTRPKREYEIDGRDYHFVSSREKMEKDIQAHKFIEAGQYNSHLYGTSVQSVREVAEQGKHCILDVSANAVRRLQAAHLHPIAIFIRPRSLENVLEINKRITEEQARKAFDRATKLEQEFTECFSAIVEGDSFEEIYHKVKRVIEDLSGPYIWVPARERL

- percent of molecules as dimers (GluA1(ΔNTD)-TARP2): 45%
- percent of molecules as monomers (GluA1(ΔNTD)-TARP2): 41%
- percent of molecules as tetramers (GluA1(ΔNTD)-TARP2): 14%
Substance: GluA1(ΔNTD)-TARP2

- percent of molecules as dimers (GluA1-TARP2): 39%
- percent of molecules as monomers (GluA1-TARP2): 19%
- percent of molecules as tetramers (GluA1-TARP2): 2%
- percent of molecules as trimers (GluA1-TARP2): 18%
Substance: GluA1-TARP2

- fold of the fraction of the τ2 dwell-lifetime component against mNlg1 [1]: 2.5 fold
Substance: Halo7-tagged wild-type Neuroligin1 (from UniProt Q99K10 46-843) (receptor)
